This assay deals with T1, recombinant IGFBP-3 protein (rBP3) of the in vitro binding assays with vimentin domains (human, UniProt P17936 28-291).
T1 construct: IGFBP-3, human, recombinant protein; by the pull-down methods it may be the purified His-IGFBP-3; source: recombinant
The assay can be described thus: pull-down; in vitro binding: glutathione-agarose-bound GST-vimentin (full-length, domains or deletion mutants) incubated with purified recombinant IGFBP-3 or its C-terminal domain; TNE binding buffer, 4 °C; Western blot. To be noted: both partners purified. On the technique in general: Immunoblotting shows a protein as a band on a membrane.

T1 sequence (P17936 28-291): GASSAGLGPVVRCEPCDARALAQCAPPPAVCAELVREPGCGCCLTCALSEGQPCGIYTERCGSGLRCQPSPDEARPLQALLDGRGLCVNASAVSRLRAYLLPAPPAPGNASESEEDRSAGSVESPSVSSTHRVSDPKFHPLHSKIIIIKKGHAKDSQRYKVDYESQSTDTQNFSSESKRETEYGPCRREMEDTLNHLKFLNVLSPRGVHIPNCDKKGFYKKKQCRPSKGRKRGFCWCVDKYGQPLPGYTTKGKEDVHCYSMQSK

B1: GST-tagged head domain of vimentin (1-101 aa) (domain or fragment, human, UniProt P08670 1-101, looked up)
chain: MSTRSVSSSSYRRMFGGPGTASRPSSSRSYVTTSTRTYSLGSALRPSTSRSLYASSPGGVYATRSSAVRLRSSVPGVRLLQDSVDFSLADAINTEFKNTRT
notes: vimentin, human, head domain, residues 1-101; source: bacterial expression (pGEX-4T-2), recombinant
Take B1: the binding result is listed as “binds”.

B2: GST-tagged vimentin coiled-coil domain deletion mutant ΔCC (1-101 linked with 411-467 aa) (domain or fragment, human, UniProt P08670 1-466, looked up)
chain: MSTRSVSSSSYRRMFGGPGTASRPSSSRSYVTTSTRTYSLGSALRPSTSRSLYASSPGGVYATRSSAVRLRSSVPGVRLLQDSVDFSLADAINTEFKNTRTISLPLPNFSSLNLRETNLDSLPLVDTHSKRTLLIKTVETRDGQVINETSQHHDDLE
notes: vimentin, human, head domain (1-101) ligated to tail domain (411-467 as printed); source: bacterial expression (pGEX-4T-2), recombinant
Regarding B2, the binding result was “binds”.
